# Assay: soluble on expression in E. coli; label from the status in PepcDB or PDB records
row,Sequence,soluble on expression in E. coli
1,RGRLKVFLGAAPGVGKTYAMLQAAHAQLRQGVRVMAGVVETHGRAETEALLNGLPQQPLLRTEYRGMTLEEMDLDALLKAAPSLVLVDELAHTNAPGSRHTKRWQDIQELLAAGIDVYTTVNVQHLESLNDQVRGITGVQVRETLPDWVLQEAFDLVLIDLPPRELLERLRDGKVYVPEQARAAIDAFFTQTNLTALREMAMQTAAAQVDNDLAQGYRQLGQSAP,soluble
2,RLHEILASGVYANHPSPLTIALGKDISGRPVVSDLAKMPHALVAGTTGSGKSVAINAIILSLVYKASPDNVRLILIDPKMLELSVYDGIPHLLTPVVTDMRDAASALNWCVAEMERRYKLMSALGVRNLAGYNQKVREAVKNEEPLTNPLNPVPGSPELLEEMPLIVVVIDELADLMMIVGKKVEKLIARLAQKARAAGIHLLLATQRPSV,not soluble
3,RPAPLWAVVADAAVQPAMAAGNDDFETARALDTARELVAGLREGVDSLGGDVAEFKAAIPQHNFEQICDGCFAPIDPGVEPDYVVAHRVSCCMIYHSPTAGKCTSCPHQDKDVRKNALIAASESF,not soluble
4,RPVWYGDPISTSTSHRDLMLVVDLSYSMSQEDMQSGQQMVDRLTAVKQVLSEFIAKREGDRIGLILFADHAYLQTPLTLDRQTVANQLNQTVLKLIGTQTAIGEGIGLATKTFIDSDAPQRVMILLSDGSNTAGVLDPLEAANIAKQYNTTIYTVGVGAGEMVVKDFLFSRKVNTAQDLDEKTLQTIATTTGGHYFRARNQQDLQNIYDTINQLEPISQSN,not soluble
5,RQGELSIACLPVFSQSFLPLLLPPFLSRYPEVSLQIVPQESPLLEEWLSAQRHDLGLTETLHTPAGTERTPLLTLNEVCVLPAGHPLAAQATLTPADFQGENYISLSRTDSYRQLLDALFLEHQVKRRMVVETHSAASICAMVRAGA,not soluble
6,RRQHQHLLESLVHSTAKQQGDFTKTAELATELLCQNLAVSLVSIWIFSADQGTQSLVAQFGSMALQDTYRPSLLHTVPRYLNELKNYRHIDAGNTLIDPRLTELVDSYFIPRQILSSLDVGIRINGHLEGVLCIERAQVTHHWHDSEIHLACQMADQLALTLATKHAYDKEERLSLFRCAIEQSRQMSM,not soluble
7,RSKTVILAKNLPAGTLAAEIQETFSRFGSLGRVLLPEGGITAIVEFLEPLEARKAFRHLAYSKFHHVPLYLEWAPIGVFGAAPQKKDSQHEQPAEKAE,soluble
8,RSLIAGYDPLILDVSHGFNISEFARIANTLDDTTYTSLTPMQLLKAMDTLEGIESLRRFAAILVGGAPLRADDLRAAKELGINVVTTYGSSETSGGCVYNGRPIPGAKVRVV,not soluble
9,RTNRTGMATAIPDSLHKIFYTAAGRRVEDAGGILPDIEVKQDTAATLLYYMAINNDVFDFVTGYVLKHKTIAKPEDFSITNEDYAAFCKMMEEKKFDYDRQSGKMLDKLEELAKIEGYLPEANSELKALREKLKPNLSRDLLRFKKEITNYLNNEIVTRYYYERGSIRQSLPEDKVVKEAIKLLKDHPEQIRQILAAPKAENKG,not soluble
10,RVMDMKAPIKVYMTKKLLGVKPSTSVQEASRLMMEFDVGSLVVINDDGNVVGFFTKSDIIRRVIVPGLPYDIPVERIMTRNLITANVNTPLGEVLRKMAEHRIKHILIEEEGKIVGIFTLSDLLEASRRRLETAISAE,soluble
11,RVTDAEHPGVQLEFTNNKGELVSYEAISPWQKNAAGVNFHTFYGFGAVDLDEAMKRARMTNNVLPAQIITPWANNATEVSVPDASLAGGSSNIAITDDITVESVQVKLTLEHSRLPDLAIELVSPSGTRSVLQTPRNGLVGQSLDPNITGYENQLMLSNQFYGENAKGEWTLRAIDTNGDEVFSFIAYFNSSAIYDVPMANNAKPGVIKNWSMRIFGH,not soluble
12,SACSRDTPEAPQSTSATSSAAPSTTSASTTAPSSASASSITQTSKVSSQAEAPTSVPPMLDSKHKNVQRAFEQFGALAPESLFAQFDTCDANGVQNSMACSGHDVGQFQFFKSDAKAASTTQLLTELRSSRVIEDTGRR,not soluble
13,SADESDMRNELNDIQARADQLGDESLESTRRMLQLVEESKDAGIRTLVMLDEQGEQLERIEEGMDQINKDMKEAEKNLTDLGNLCGLCPCPCNKLKGGGQSWGNNQDGVVSSQPARVVDEREQMAISGGFIRRVTNDARENEMDENLEQVGSIIGNLRHMALDMGNEIDTQNRQIDRIMDMADSNKTRIDEANQRATKMLGSG,soluble

# Reference: the DeepSol protein solubility set
